The chains are these.
B1: Thioredoxin-like protein 4A, P83876 (parent)
chain: MSYMLPHLHNGWQVDQAILSEEDRVVVIRFGHDWDPTCMKMDEVLYSIAEKVKNFAVIYLVDITEVPDFNKMYELYDPCTVMFFFRNKHIMIDLGTGNNNKINWAMEDKQEMVDIIETVYRGARKGRGLVVSPKDYSTKYRY

This series covers variants of B1. Conditions: Homo sapiens; pH 7.82; 20 °C; GdnHCl; CD; sodium phosphate 50 mM; structure 1QGV; whole UniProt chain shown.
As for MSYMLPHLHNGWQVDQAILSEEDRVVVIRFGHDWDPTCMKMDEVLYSIAEKVKNFAVIYLVDITEVPDFNKMYELYDPCTVMFFFRNKHIMIDLGTGNNNKINWAMEDKQEMVDIIETVYRGARKDRGLVVSPKDYSTKYRY [G126D], the “ddG of mutation (higher = less stable)” value stood at 1.71 kcal/mol, the denaturant m value came out at 2.78 kcal/mol/M, the “denaturant midpoint (higher = more stable)” value amounted to 3.36 M and the unfolding free energy came out at 9.34 kcal/mol.

Values taken from FireProtDB (doi:10.1021/bi034486i).
